We go through 3 molecules from paper PMC3045587.

The target in series [1] is T1, hTra2-β RRM (Homo sapiens, UniProt P62995 110-201).
T1 sequence: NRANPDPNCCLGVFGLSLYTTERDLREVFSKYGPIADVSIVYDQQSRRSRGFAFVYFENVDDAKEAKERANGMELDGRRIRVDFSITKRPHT
The series is described as follows: ITC. A general note: ITC needs no label: the signal is the heat of the interaction.

Series [2] addresses T1, hTra2-β RRM. Put plainly: NMR titration.
Series [3] concerns the target T1, hTra2-β RRM. The series is described as follows: ITC. The source holds these as a separate data set.

One may read the Kd as the free concentration of one partner at which half of the binding sites on the other are occupied at equilibrium, for simple one-to-one binding.

Take GAAGAA (ssRNA) [(GAA)2, GAAGAA]: in the series with hTra2-β RRM [1], the dissociation constant Kd stood at 1.5 µM.
Consider UCAAU (ssRNA), for which the results for the Kd with hTra2-β RRM [2] and with hTra2-β RRM [3] were roughly 40 µM and 47.8 µM, respectively.
As for GACUUCAACAAGUC (structured_RNA) [14-mer CAA stem-loop RNA], in the series with hTra2-β RRM [1], the Kd is 3.48 µM.
